Results on one substance are retold here after US5994105.

The assay addresses commercially available renin (SIGMA). To be noted: scale: % remaining renin activities.

On to “rat acylglucosamine 2-epimerase obtained in example 4 (from UniProt P51607) (enzyme)”, for which the Remaining renin activities (%) turned out to be 48.
